B1: Mouse eotaxin (ligand, UniProt P48298 24-97, looked up)
chain: HPGSIPTSCCFIMTSKKIPNTLLKSYKRITNNRCTLKAIVFKTRLGKEICADPKKKWVQDATKHLDQKLQTPKP
notes: also called murine eotaxin
B2: CAT-213 (antibody, V domains shown)
VH: QVQLVQSGGGVVQPGRSLRLSCAASGFTFSSYGMHWVRQAPGKGLEWVAVISYDGSIKHYADSVKGRFTISRDNSKNTLYLQMNSLRTDDTAVYYCAGDTDYGDIDPWGQGTMVTVSS
VL: DIQMTQSPSSVSASVGDRVTITCRASQDISSWLAWYQQKPGKAPKLLIYAASSLQSGVPSRFSGSGSGTDFTLTISSLQPEDFATYYCQQASSFPSITFGQGTRLEIKR
notes: Expressed in NS0 cells and purified on Protein A

Assays:
[1] = biological target: T1, CAT-212; assay: Flash Plate scintillation competition: unlabelled mouse eotaxin against [125I]eotaxin for coated CAT-212; mean of two estimates
T1 construct: Human scFv; IMAC-purified soluble scFv in the Western blot and Flash Plate assays; FPLC-purified monomeric scFv in the chemotaxis assay
Description: Flash Plate™ was prepared as described in Example 6. Eleven serial one in three dilutions of unlabelled human and mouse Eotaxin (R&D) in Assay Buffer and mixed with ¹²⁵I-Eotaxin prepared at an estimated concentration of 30 pM and 100 μl added to the wells in duplicate. The plate was sealed and incubated at room temperature for two hours, counted and the data processed as described in Example 6.

[2] = biological target: T2, Human eotaxin (human, UniProt P51671 24-97, 125-iodine label in the Flash Plate assays; site not given); assay: cell-based or functional assay
[3] = biological target: B1; assay: cell-based or functional assay
[4] = biological target: Rhesus monkey eotaxin (rhesus monkey, UniProt Q8MIT7 24-97, limits assumed); assay: cell-based or functional assay
[5] = biological target: T2, Human eotaxin; assay: Flash Plate scintillation competition: soluble CAT-213 against coated CAT-212 (competitor) for [125I]eotaxin; mean of 4 estimates
Description: The Flash Plate assay was performed essentially as described in Example 6.

Sequence of Rhesus monkey eotaxin (Q8MIT7 24-97 limits assumed): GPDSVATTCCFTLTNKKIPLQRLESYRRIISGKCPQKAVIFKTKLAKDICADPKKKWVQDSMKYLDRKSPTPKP

IC50 [1] [nM]	IC50, inhibition of eotaxin-mediated chemotaxis of CCR3-transfected L1.2 cells [2] [nM]	geometric mean IC50, inhibition of eotaxin-evoked shape change of human eosinophils [2] [nM]	geometric mean IC50, inhibition of eotaxin-mediated chemotaxis of human eosinophils [2] [nM]	geometric mean IC50, inhibition of mouse eotaxin-mediated chemotaxis of L1.2-CCR3 cells [3] [nM]	geometric mean IC50, inhibition of rhesus monkey eotaxin-mediated chemotaxis of L1.2-CCR3 cells [4] [nM]	IC50 [5] [nM]	Binder
296	–	–	–	–	–	–	B1
–	0.7	0.714	1.53	2630	303	0.0593	B2

Source: patent US20020098523A1 (CAMBRIDGE ANTIBODY TECHNOLOGY, published 2002)
